These results are taken from patent US20240043504A1 (published 2024).

Assay [1] has as its target SARS-COV-2 RBD extracellular domain expressed with a C-terminal mouse IgG2a (SARS-CoV-2). Kind of assay: SPR Biacore, mAb captured via anti-hFc, 25 C. In general terms: SPR reads the build-up and loss of mass on a sensor chip optically.
Assay [2] deals with SARS-COV-2 RBD extracellular domain expressed with a C-terminal mouse IgG2a (SARS-COV-2 RBD-mFc) (SARS-CoV-2). Kind of assay: SPR, captured mAb, RBD-mFc in solution, 37 C.

Changes are numbered by the printed parent chain.

B1: mAb10998 (antibody, V domains shown)
VH: EVQLVESGGGLVHPGGSLRLSCAASGLTVSSNYMSWVRQAPGKGLEWVSVIYSGGSTYYADSVKGRFTISRHNSKNTLFLQMNSLRAEDTAVYYCARDRPITGTTLDVWGQGTTVTVSS
VL: DIQMTQSPSSLFASVGDRVTITCRASQSISSYLNWYQQKPGKAPKLLIYAASSLQSGVPSRFSGSGSGTDFTLTISSLQPEDFAFYYCQQTYSTPPITFGQGTRLEIKR
One may read the Kd as the free concentration of one partner at which half of the binding sites on the other are occupied at equilibrium, for simple one-to-one binding. Low values mean tighter binding, high ones weaker binding. By koff is commonly meant the first-order rate constant of dissociation. A higher koff goes with fast dissociation. As a reminder, the kon is the rate constant with which the complex forms. A word on the t½: it is the time in which the quantity being followed falls by half. As to B1, in assay [1], binding was put at a Kd of 2440 pM, the koff came out at 0.00358 s⁻¹, the kon was determined as 1.47e+06 M⁻¹ s⁻¹ and the “t½” value was found to be 0.0533 h.

B2: mAb10982 (antibody, V domains shown)
VH: EVQLVESGGGLVQPGGSLRLSCAASGLTVSSNYMSWVRQAPGKGLEWVSVIYSGGTTYYADSVKGRFTISRHNSKNTLSLQMNSLRAEDTAVYYCARGEGANYYGMDVWGQGTTVTVSS
VL: QSVLTQPPSVSGAPGQRVTISCTGSSSNIGTGYDVHWYQQLPGTAPKLLIYGNSNRPSGVPDRFSGSKSGTSASLAITGLQAEDEADYYCQSYDSSLSGYVVFGGGTKLTVLG
On to B2, for which, in assay [1], the Kd came to 88.6 pM, the koff is 8.06e-05 s⁻¹, the kon was 910000 M⁻¹ s⁻¹ and the “t½” value was 2.39 h.

B3: mAb10985 (antibody, V domains shown)
VH: EVQLVESGGGLVQPGRSLRLSCAASGFTFDDYAMHWVRQAPGKGLEWVSGISWNRGSIGYADSVKGRFTISRDNAKNSLYLQMSSLRAEDTALYYCAKDGERWDSVVVPSARNGMDVWGQGTTVTVSS
VL: B2 VL with T31A, Y100S, V101Y, G105T, L109V
As to B3, in assay [1], the Kd was found to be 10.5 pM and the “t½” value is 2.26 h.

B4: mAb10986 (antibody, V domains shown)
VH: EVQLVESGGGLVQPGGSLRLSCAASEFTVSSNYMSWVRQAPGKGLEWVSVIYSGGSTFYADSVKGRFTISRDNSKNTLYLQMNSLRAEDTAVYYCARALPYGDLHFDYWGQGTLVTVSS
VL: B2 VL with S54T, G99D, Y100S, V101Y, G105T, L109V
As to B4, in assay [1], the Kd is 8.88 pM and the “t½” value stood at 8.02 h.

B5: mAb10921 (antibody, V domains shown)
VH: EVQLVESGGGLVQPGGSLRLSCAASGITVSSNYMSWVRQAPGKGLEWVSVIYSGGSTFYADSVKGRFTISRHNSKNTLYLQMNSLRAEDTAVYYCARERNFDAFDIWGQGTMVTVSS
VL: DIQMTQSPSSVSASVGDRVTITCRASQGISSWLAWYQQKPGKAPKLLIYAASSLQSGVPSRFSGSGSGTDFTLTISSLQPEDFATYYCQQANSFPLFTFGPGTKVDIKR
Regarding B5, in assay [2], the affinity, expressed as Kd, was 273 pM; the koff was determined as 0.000125 s⁻¹; the kon is 458000 M⁻¹ s⁻¹; the “t½” value was determined as 1.54 h.

B6: mAb11010 (antibody, V domains shown)
VH: QVQLVESGGGVVQPGRSLRLSCAASGFTFSSYGMHWVRQAPGKGLEWVAVISYDGSYKYYADSVKGRFTISRDNSKNTLYLQMNSLRAEDTAVYYCAIDGGTVTTIFDYWGQGTLVTVSS
VL: not shown
For the molecule B6, in assay [1], the Kd came to 78.9 pM and the “t½” value came out at 2.14 h.

B7: mAb11006 (antibody, V domains shown)
VH: EVQLVESGGGLVQPGGSLRLSCAASGFIVSRNYMSWVRQAPGKGLEWVSVIYSGGSTFYADSVKGRFTISRHNSKNTLYLQMNSLKAEDTAVYYCARELRGYFDYWGQGTLVTVSS
VL: DIQLTQSPSFLSASVGDRVTITCWASQGISSYLAWYQQKPGKAPKLLIYAASTLQSGVPSRFSGSGSGTEFTLTISSLQPEDFATYYCQLLNSYPYTFGQGTKLEIKR
B7: in assay [1], binding was characterised by a dissociation constant (Kd) of 158 pM and the “t½” value was 3.69 h.

B8: mAb11008 (antibody, V domains shown)
VH: EVQLVESGGGLVQPGGSLRLSCAASGFTVSSNYMTWVRQAPGKGLEWVSVIYSGGSTFYADSVKGRFTISRHNSENTLYLQMNSLRAEDTAVYYCARDLAAAGTDYWGQGALVTVSS
VL: B7 VL with E81D, L90H, P95L
Consider B8, for which, in assay [1], the Kd worked out at 492 pM, the koff was 0.000192 s⁻¹, the kon is 390000 M⁻¹ s⁻¹ and the “t½” value stood at 1 h.

B9: mAb10914 (antibody, V domains shown)
VH: EVQLVESGGGLVQPGGSLRLSCAASGLIVSRNYMIWVRQAPGKGLEWVSVIYSGGSTFYADSVKGRFTISRHNSKNTLYLQMNSLRAEDTAVYYCARDLGTGGMDVWGQGTTVTVSS
VL: B7 VL with L90Q, Y96L, Q100G, L104V
Turning to B9, in assay [2], binding was characterised by a dissociation constant (Kd) of 318 pM and the “t½” value was 0.875 h.

B10: mAb10915 (antibody, V domains shown)
VH: B7 VH with I28T, R31S, S35N, K86R, A87P, E98D, R100G
VL: not shown
With B10, in assay [2], binding was put at a Kd of 156 pM and the “t½” value amounted to 2.79 h.

B11: mAb10923 (antibody, V domains shown)
VH: QVQLVQSGAEVKKPGASVKVSCKASGYTFINYYIHWVRQAPGQGLEWMGWINPNSGGTNYAQKFQGRVTMTRDTSISTAYMELSRLRSDDTAVYYCAIITIFGVVTWFDPWGQGTLVTVSS
VL: not shown
For B11, in assay [2], binding was put at a Kd of 33.6 pM, the koff worked out at 0.000185 s⁻¹, the kon came out at 5.53e+06 M⁻¹ s⁻¹ and the “t½” value is 1.04 h.

B12: mAb10932 (antibody, V domains shown)
VH: EVQLVESGGGLVQSGGSLRLSCAASGLTVSSNYMSWVRQAPGKGLEWVSVIYSGGSTFYSDSVKGRFTISRHNSKNTLYLQMNSLRAEDTAVYYCARARGDAFDIWGQGTMVTVSS
VL: not shown
In the case of B12, in assay [2], the dissociation constant Kd came to 153 pM, the koff is 6.86e-05 s⁻¹, the kon came to 448000 M⁻¹ s⁻¹ and the “t½” value came to 2.81 h.

B13: mAb10969 (antibody, V domains shown)
VH: QVQLVESGGGVVQPGRSLRLSCAASGFTFSSYAMHWVRQAPGKGLEWVAVISYDGSNKYYADSVKGRFTISRDNSKNTLYLQMNSLRAEDTAVYYCARDGRTITMVRGVIDDAFDIWGQGTMVTVSS
VL: not shown
In the case of B13, in assay [1], binding was characterised by a dissociation constant (Kd) of 216 pM and the “t½” value worked out at 1.93 h.

B14: mAb11002 (antibody, V domains shown)
VH: EVQLVESGGGLVQPGGSLRLSCAASGFTVSSNYMSWVRQAPGKGLEWVSVIYSGGSTFYADSVKGRFTISRHNSKNTLYLQMNSLRAEDTAVYYCAREGYGMDVWGQGTTVTVSS
VL: not shown
Turning to B14, in assay [1], the Kd came out at 4460 pM and the “t½” value turned out to be 0.0783 h.

B15: mAb11004 (antibody, V domains shown)
VH: QVQLVESGGGVVQPGRSLRLSCVASGFTFSIYGMDWVRQAPGKGLEWVAVISYDGSNKYYADSVKGRFTISRDNSKNTLYLQMNSLRPEDTAVYYCAKDREAAADAFDIWGQGTMVTVSS
VL: DIQMTQSPSSVSASVGDRVTITCRASQGISSWLAWYQQKPGKAPKLLIYAASSLHSGVPSRFSGSGSGTDFTLTISSLQPEDFATYYCQQANSFRLTFGGGTKVEIKR
Take B15: in assay [1], the Kd came to 92.1 pM, the koff was determined as 6.4e-05 s⁻¹, the kon was determined as 695000 M⁻¹ s⁻¹ and the “t½” value came out at 3.01 h.

B16: mAb10913 (antibody, V domains shown)
VH: EVQLVESGGGLVQPGGSLRLSCAASGFTFRNYEMNWVRQAPGKGLEWVSYITSSGSTMYYADSVKGRFTISRDNAKNSLYLQMNSLRAEDTAVYYCARDGFYYYYAMDVWGQGTTVTVSS
VL: QSVLTQPPSVSAAPGQKVTISCSGSSSNIGNNYVSWYQQLPGTAPKLLIYDNNKRPSGIPDRFSGSKSGTSATLGITGLQTGDEADYYCGTWDSSLSVGRVFGTGTKVTVLG
Take B16: in assay [2], the Kd came to 274 pM, the koff came to 0.00173 s⁻¹, the kon was determined as 6.32e+06 M⁻¹ s⁻¹ and the “t½” value was 0.112 h.

B17: mAb10989 (antibody, V domains shown)
VH: QVQLVQSGAEVKKPGASVKVSCKASGYIFTGYYMHWVRQAPGQGLEWMGWINPNSGGANYAQKFQGRVTLTRDTSITTVYMELSRLRFDDTAVYYCARGSRYDWNQNNWFDPWGQGTLVTVSS
VL: QSALTQPASVSGSPGQSITISCTGTSSDVGTYNYVSWYQQHPGKAPKLMIFDVSNRPSGVSDRFSGSKSGNTASLTISGLQAEDEADYYCSSFTTSSTVVFGGGTKLTVLG
As for B17, in assay [1], the affinity, expressed as Kd, was 8.95 pM and the “t½” value came to 2 h.

B18: mAb10920 (antibody, V domains shown)
VH: QVQLVESGGGVVQPGRSLRLSCAASGFTFSYYGMHWVRQAPGKGLEWVAVIWYDGSNKFYADSVKGRFTISRDNSKNTLYLQMNSLRAEDTAVYYCAAARPGYYYGMDVWGQGTTVTVSS
VL: DIQMTQSPSSLSASVGDRVTITCRASQGISNYLAWFQQKPGKAPNSLIYAASSLQRGVPSKFSGSGSGTDFTLTISSLQPEDFATYYCQQYNSYPRTFGQGTKVEIKR
With B18, in assay [2], the Kd worked out at 119 pM and the “t½” value worked out at 0.255 h.

B19: mAb10930 (antibody, V domains shown)
VH: EVQLVESGGGLVQPGRSLRLSCAASGFTFDDYAMYWVRQAPGKGLEWVSGISWNSGSIGYADSVKGRFTISRDNAKNSLYLQMNSLRAADTALYYCAKDKDWNSRGYYYYGMDVWGQGTTVTVSS
VL: not shown
On to B19, for which, in assay [2], binding was put at a Kd of 399 pM, the koff turned out to be 0.000597 s⁻¹, the kon came out at 1.49e+06 M⁻¹ s⁻¹ and the “t½” value is 0.322 h.

B20: mAb10984 (antibody, V domains shown)
VH: EVQLVESGGGLVQPGGSLRLSCAASGLTVNRNYMSWVRQAPGKGLEWVSLIYSGGSTYYADSVKGRFTISRDNSKNTLYLQMNSLRLEDTAVYYCARGELGIPYGMDVWGQGTTVTVSS
VL: QSVLTQPPSVSAAPGQKVTISCSGSSSNIGNNYVSWYQQLPGTAPKLLIYDNNKRPSGIPDRFSGSKSGTSATLGITGLQTGDEADYYCGTWDSSLSAGVFGGGTKLTVLG
Regarding B20, in assay [1], the Kd is 28.6 pM and the “t½” value is 4.85 h.

B21: mAb10971 (antibody, V domains shown)
VH: EVQLVESGGGLIQPGGSLRLSCAASGVTVSSNYMSWVRQAPGKGLEWVSVIYSGGSTFYSDSVKGRFSISRDNSKNTLYLQMNSLRAEDTAVYYCARDLYYYGMDVWGQGTTVTVSS
VL: DIQLTQSPSFLSASVGDRVTITCRASQGISTYLAWYQQKPGKAPKLLIYAASTLQSGVPSRFSGSGSGTEFTLTISSLQPEDFATYYCQQLDSYPGLTFGGGTKVEIKR
On to B21, for which, in assay [1], binding was put at a Kd of 29.2 pM, the koff amounted to 4.09e-05 s⁻¹, the kon came out at 1.4e+06 M⁻¹ s⁻¹ and the “t½” value was found to be 4.71 h.
